According to the supplement of paper PMC9112550, “Optimization of the antimicrobial peptide Bac7 by deep mutational scanning” (BMC Biology, 2022):

Tested on: Escherichia coli TOP10
Assay: shrunken log2 fold change of peptide-encoding DNA abundance (4.5 h post-induction vs induction); higher = less antimicrobial activity (less host growth inhibition)
Conditions: time post-induction: 4.5 h; library: site-saturation at positions 5, 18, 19, 20
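Further: peptides expressed intracellularly from a pBAD plasmid library in pooled LB shake-flask culture, induced with 0.3% L-arabinose, DNA abundance read by NGS, three biological replicates, DESeq2 with apeglm shrinkage.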

Sequence | shrunken log2 fold change
RRIRSRPPRLPRPRPRPGFYPRP | -0.312
RRIRERPPRLPRPRPRPKLLPRP | 0.0473
RRIRIRPPRLPRPRPRPAVWPRP | 0.141
RRIRTRPPRLPRPRPRPYPLPRP | 0.0692
RRIRHRPPRLPRPRPRPVGSPRP | 0.145
RRIRLRPPRLPRPRPRPAPKPRP | 0.659
RRIRTRPPRLPRPRPRPEMYPRP | -0.012
RRIRERPPRLPRPRPRPTNYPRP | -0.068
RRIRVRPPRLPRPRPRPRGKPRP | 0.252
RRIRWRPPRLPRPRPRPAIQPRP | 0.0853
RRIRWRPPRLPRPRPRPTCYPRP | -0.0755
RRIRQRPPRLPRPRPRPCNQPRP | -0.213
RRIRGRPPRLPRPRPRPSCLPRP | 0.571
RRIRWRPPRLPRPRPRPSWNPRP | -0.212
RRIRTRPPRLPRPRPRPRRQPRP | -0.0389
RRIRWRPPRLPRPRPRPKTNPRP | 0.239
RRIRDRPPRLPRPRPRPIRIPRP | -0.0935
RRIRCRPPRLPRPRPRPCMHPRP | -0.0569
RRIRHRPPRLPRPRPRPFHFPRP | -0.403
RRIRSRPPRLPRPRPRPGYYPRP | -0.457
RRIRDRPPRLPRPRPRPINHPRP | -0.229
RRIRRRPPRLPRPRPRPVVAPRP | 0.43
RRIRCRPPRLPRPRPRPLMCPRP | -0.306
RRIRFRPPRLPRPRPRPPCPPRP | 0.46
RRIRNRPPRLPRPRPRPLGRPRP | 0.244

Sequence | shrunken log2 fold change
RRIRPRPPRLPRPRPRPHVEPRP | 0.107
RRIRCRPPRLPRPRPRPPDCPRP | 0.177
RRIRSRPPRLPRPRPRPKDYPRP | -0.128
RRIRTRPPRLPRPRPRPHQFPRP | -0.738
RRIRWRPPRLPRPRPRPAYMPRP | -0.205
RRIRQRPPRLPRPRPRPINFPRP | 0.0669
RRIRSRPPRLPRPRPRPRFYPRP | -0.642
RRIRERPPRLPRPRPRPPPLPRP | 0.222
RRIRARPPRLPRPRPRPTHTPRP | 0.664
RRIRLRPPRLPRPRPRPETNPRP | 0.467
RRIRHRPPRLPRPRPRPLFFPRP | -0.171
RRIRWRPPRLPRPRPRPLVRPRP | 0.151
RRIRTRPPRLPRPRPRPDLAPRP | 0.132
RRIRCRPPRLPRPRPRPSNDPRP | -0.451
RRIRFRPPRLPRPRPRPFPWPRP | -0.211
RRIRLRPPRLPRPRPRPDWAPRP | 0.0283
RRIRERPPRLPRPRPRPKFMPRP | -0.293
RRIRDRPPRLPRPRPRPLPKPRP | 0.368
RRIRIRPPRLPRPRPRPDRTPRP | -0.0709
RRIRYRPPRLPRPRPRPAEHPRP | -0.0954
RRIRLRPPRLPRPRPRPIDNPRP | -0.421
RRIRLRPPRLPRPRPRPWPKPRP | -0.0141
RRIRQRPPRLPRPRPRPTDNPRP | -0.335
RRIRYRPPRLPRPRPRPAQWPRP | -0.294
RRIRSRPPRLPRPRPRPIDGPRP | 0.0145

Sequence | shrunken log2 fold change
RRIRVRPPRLPRPRPRPTYIPRP | -0.51
RRIRHRPPRLPRPRPRPWDCPRP | -0.00608
RRIRDRPPRLPRPRPRPDRAPRP | 0.281
RRIRDRPPRLPRPRPRPTEYPRP | -0.154
RRIRIRPPRLPRPRPRPSINPRP | -1.03
RRIRTRPPRLPRPRPRPCWEPRP | 0.203
RRIRMRPPRLPRPRPRPYKVPRP | -0.0176
RRIRWRPPRLPRPRPRPEAVPRP | 1.05
RRIRVRPPRLPRPRPRPEHLPRP | -0.171
RRIRYRPPRLPRPRPRPATYPRP | -0.113
RRIRHRPPRLPRPRPRPQMMPRP | -0.279
RRIRHRPPRLPRPRPRPFCHPRP | -0.308
RRIRMRPPRLPRPRPRPYDEPRP | 0.0491
RRIRNRPPRLPRPRPRPMDTPRP | -0.141
RRIRARPPRLPRPRPRPKYRPRP | -0.118
RRIRDRPPRLPRPRPRPLITPRP | 0.189
RRIRARPPRLPRPRPRPEPNPRP | 1.16
RRIRKRPPRLPRPRPRPLGRPRP | 1.35
RRIRYRPPRLPRPRPRPNPDPRP | -0.407
RRIRDRPPRLPRPRPRPWHCPRP | 0.102
RRIRSRPPRLPRPRPRPPNVPRP | 0.0837
RRIRERPPRLPRPRPRPQFDPRP | -0.111
RRIRTRPPRLPRPRPRPFNCPRP | -0.038
RRIRMRPPRLPRPRPRPIMKPRP | -0.24
RRIRGRPPRLPRPRPRPHTMPRP | -0.175
